Laboratory results taken from paper PMC9098913, “In vitro reconstitution of Escherichia coli divisome activation” (Nature Communications, 2022).
Like-named read-outs stand apart in the source and are kept apart here.

What was measured:
[1] = tested on: FtsZ; details: for FtsZ autocorrelation T: mean; for Autocorrelation Decay Tau: Fig. S2i, + FtsN;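 as to all read-outs here: FtsZ filament patterns imaged by time-lapse TIRF microscopy, one frame per 2 s, with ATP and GTP, Pearson correlation of first frame versus later frames, monoexponential fit, slower decay means persistent structures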
[2] = tested on: FtsA self-interaction; test: FRET self-interaction of His-tagged FtsAs (and His-SUMO control) on Tris-NTA membranes; format: binding, E. coli
Experimental: To study colocalization of His-tagged variants of FtsA, 0.5–1 µM of Cy5 labelled His-tagged FtsAs were added to the chamber, incubated for 20 min and washed 6x with reaction buffer. […] To control the density of membrane-bound FtsA, SUVs without and with Tris-NTA lipids were mixed to obtain the respective Tris-NTA concentrations. To perform FRET/FRAP experiments, equimolar concentrations of Cy3 and Cy5 labelled His-tagged FtsAs (total 0.5–1 µM) or His-SUMO-Cys were added to a chamber and treated as above. […] FRAP experiments were performed as described before.
Bleaching the acceptor dye leads to an increase in the donor intensity, which can be used to quantify the Foerster Resonance energy transfer (FRET)[48]. FRET efficiency was quantified with E%=Ipost/Ipost+Ipre⋅100 , where Ipost is the intensity of the […] and Ipre is the […]. […] To extract the contribution of both processes, we adjusted a routine recently published by Gerganova et al.[33]. In short, the code provides the contribution of both modes of recovery by analysing the shape of the fluorescence recovery profile. […] Contribution of diffusion leads to a change of the slope of the outer borders of the bleached region (S4h right). Thus, by measuring the change of the slope of the border recovery, diffusion and simple on/off binding can be distinguished. We developed “FRAPdiff”, a graphical user interface, which uses the original fit routine by David Rutkowski. It can be used directly on.tiff movies with annotated bleach regions as ImageJ ROIs. In addition, we added optional bleach correction, user selectable projection axis (x or y), and optional mirroring of the recovery profiles, if bleaching was not symmetric. The original fit routine for estimating the recovery and diffusion dynamics can be found at https://github.com/davidmrutkowski/1DReflectingDiffusion. FRAPdiff is available at 10.5281/zenodo.6400639[49] under the GPLv3 open-source license.

FtsA WT: wild-type E. coli actin-homologue FtsA, membrane anchor of FtsZ
FtsZ autocorrelation ([1]; 0.1 µM FtsA, Exp. 1): 103.16 s | FtsZ autocorrelation ([1]; 0.1µM FtsA, Exp. 2): 95.06 s | FtsZ autocorrelation T ([1]; 0.10 µM FtsA): 86.22 s | FtsZ autocorrelation ([1]; 0.2 µM FtsA, Exp. 1): 137.57 s | FtsZ autocorrelation ([1]; 0.2µM FtsA, Exp. 2): 43.74 s | FtsZ autocorrelation T ([1]; 0.20 µM FtsA): 87.69 s | FtsZ autocorrelation ([1]; 0.4 µM FtsA, Exp. 1): 70.56 s | FtsZ autocorrelation ([1]; 0.4µM FtsA, Exp. 2): 64.54 s | FtsZ autocorrelation T ([1]; 0.40 µM FtsA): 64.93 s | FtsZ autocorrelation ([1]; 0.8 µM FtsA, Exp. 1): 56.36 s | FtsZ autocorrelation ([1]; 0.8µM FtsA, Exp. 2): 98.59 s | Autocorrelation Decay Tau ([1]; replicate 1): 3.11 min | Autocorrelation Decay Tau ([1]; replicate 2): 2.08 min | Autocorrelation Decay Tau ([1]; replicate 3): 2.02 min

B1: FtsA R286W-His6: FtsA R286W (1-405) with amphipathic helix replaced by C-terminal His-tag (protein)
chain: MIKATDRKLVVGLEIGTAKVAALVGEVLPDGMVNIIGVGSCPSRGMDKGGVNDLESVVKCVQRAIDQAELMADCQISSVYLALSGKHISCQNEIGMVPISEEEVTQEDVENVVHTAKSVRVRDEHRVLHVIPQEYAIDYQEGIKNPVGLSGVRMQAKVHLITCHNDMAKNIVKAVERCGLKVDQLIFAGLASSYSVLTEDERELGVCVVDIGGGTMDIAVYTGGALRHTKVIPYAGNVVTSDIAYAFGTPPSDAEAIKVRHGCALGSIVGKDESVEVPSVGGRPPWSLQRQTLAEVIEPRYTELLNLVNEEILQLQEKLRQQGVKHHLAAGIVLTGGAAQIEGLAACAQRVFHTQVRIGAPLNITGLTDYAQEPYYSTAVGLLHYGKESHLNGEAEVEKRVTASV
modifications: Cy3 or Cy5 at the N-terminus in the labelled form (sortagging as for native FtsA); left off: TwinStrep-SUMO, N-terminal, cleaved | 5xGlycine tag, N-terminal, kept | His6, C-terminal, kept
FRET efficiency ([2]; 0.1% Tris NTA, + FtsZ; Exp1): 0.51% | FRET efficiency ([2]; 0.1% Tris NTA, + FtsZ; Exp2): 0.32% | FRET efficiency ([2]; 0.1% Tris NTA, + FtsZ; mean, n = 2): 0.42% | FRET efficiency ([2]; 0.1% Tris NTA, without FtsZ; Exp1): 0.42% | FRET efficiency ([2]; 0.1% Tris NTA, without FtsZ; Exp2): 0.20% | FRET efficiency ([2]; 0.1% Tris NTA, without FtsZ; mean, n = 2): 0.31% | FRET efficiency ([2]; 0.4% Tris NTA; + FtsZ; Exp1): 4.18% | FRET efficiency ([2]; 0.4% Tris NTA; + FtsZ; Exp2): 2.69% | FRET efficiency ([2]; 0.4% Tris NTA; + FtsZ; Mean, n = 2): 3.43% | FRET efficiency ([2]; 0.4% Tris NTA; without FtsZ; Exp1): 3.62% | FRET efficiency ([2]; 0.4% Tris NTA; without FtsZ; Exp2): 3.61% | FRET efficiency ([2]; 0.4% Tris NTA; without FtsZ; Mean, n = 2): 3.62% | FRET efficiency ([2]; 0.6% Tris NTA; + FtsZ; Exp1): 3.82% | FRET efficiency ([2]; 0.6% Tris NTA; + FtsZ; Exp2): 8.42% | FRET efficiency ([2]; 0.6% Tris NTA; + FtsZ; Exp3): 3.49% | FRET efficiency ([2]; 0.6% Tris NTA; + FtsZ; Mean, n = 3): 5.24% | FRET efficiency ([2]; 0.6% Tris NTA; without FtsZ; Exp1): 2.27% | FRET efficiency ([2]; 0.6% Tris NTA; without FtsZ; Exp2): 7.55% | FRET efficiency ([2]; 0.6% Tris NTA; without FtsZ; Exp3): 3.60% | FRET efficiency ([2]; 0.6% Tris NTA; without FtsZ; Mean, n = 3 (His6-SUMO n = 2)): 4.47% | FRET efficiency ([2]; 0.8% Tris NTA; + FtsZ; Exp1): 12.66% | FRET efficiency ([2]; 0.8% Tris NTA; + FtsZ; Exp2): 13.96% | FRET efficiency ([2]; 0.8% Tris NTA; + FtsZ; Exp3): 6.95% | FRET efficiency ([2]; 0.8% Tris NTA; + FtsZ; Mean, n = 3): 11.19% | FRET efficiency ([2]; 0.8% Tris NTA; without FtsZ; Exp1): 11.90% | FRET efficiency ([2]; 0.8% Tris NTA; without FtsZ; Exp2): 13.18% | FRET efficiency ([2]; 0.8% Tris NTA; without FtsZ; Exp3): 7.63% | FRET efficiency ([2]; 0.8% Tris NTA; without FtsZ; Mean, n = 3 (His6-SUMO n = 2)): 10.90% | FRET efficiency ([2]; 1% Tris NTA; + FtsZ; Exp1): 18.63% | FRET efficiency ([2]; 1% Tris NTA; + FtsZ; Exp2): 11.68% | FRET efficiency ([2]; 1% Tris NTA; + FtsZ; Exp3): 16.69% | FRET efficiency ([2]; 1% Tris NTA; + FtsZ; Exp4): 5.28% | FRET efficiency ([2]; 1% Tris NTA; + FtsZ; Mean, n = 3 (R286W-His6 n = 4)): 13.07% | FRET efficiency ([2]; 1% Tris NTA; without FtsZ; Exp1): 13.30% | FRET efficiency ([2]; 1% Tris NTA; without FtsZ; Exp2): 11.28% | FRET efficiency ([2]; 1% Tris NTA; without FtsZ; Exp3): 16.33% | FRET efficiency ([2]; 1% Tris NTA; without FtsZ; Exp4): 5.94% | FRET efficiency ([2]; 1% Tris NTA; without FtsZ; Mean, n = 3 (R286W-His6 n = 4)): 11.71% | FRET efficiency ([2]; 2% Tris NTA; + FtsZ; Exp1): 13.95% | FRET efficiency ([2]; 2% Tris NTA; + FtsZ; Exp2): 11.07% | FRET efficiency ([2]; 2% Tris NTA; + FtsZ; Mean, n = 2): 12.51% | FRET efficiency ([2]; 2% Tris NTA; without FtsZ; Exp1): 11.54% | FRET efficiency ([2]; 2% Tris NTA; without FtsZ; Exp2): 10.61% | FRET efficiency ([2]; 2% Tris NTA; without FtsZ; Mean, n = 2): 11.08% | FRET efficiency ([2]; Tris 0.40 %, + FtsZ; mean): 3.43% | FRET efficiency ([2]; Tris 0.40 %, without FtsZ; mean): 3.61% | FRET efficiency ([2]; Tris 0.60 %, + FtsZ; mean): 5.24% | FRET efficiency ([2]; Tris 0.60 %, without FtsZ; mean): 4.47% | FRET efficiency ([2]; Tris 0.80 %, + FtsZ; mean): 11.19% | FRET efficiency ([2]; Tris 0.80 %, without FtsZ; mean): 10.90% | FRET efficiency ([2]; Tris 1.00 %, + FtsZ; mean): 13.07% | FRET efficiency ([2]; Tris 1.00 %, without FtsZ; mean): 11.71% | FRET efficiency ([2]; Tris 2.00 %, + FtsZ; mean): 12.51% | FRET efficiency ([2]; Tris 2.00 %, without FtsZ; mean): 11.08% | FRET efficiency ([2]; […] Tris NTA, + FtsZ; Exp1): 3.67% | FRET efficiency ([2]; […] Tris NTA, + FtsZ; Exp2): 2.76% | FRET efficiency ([2]; […] Tris NTA, + FtsZ; mean, n = 2): 3.22% | FRET efficiency ([2]; […] Tris NTA, without FtsZ; Exp1): 3.93% | FRET efficiency ([2]; […] Tris NTA, without FtsZ; Exp2): 1.52% | FRET efficiency ([2]; […] Tris NTA, without FtsZ; mean, n = 2): 2.73% | FRET efficiency ([2]; […] Tris NTA; + FtsZ; Exp1): 8.55% | FRET efficiency ([2]; […] Tris NTA; + FtsZ; Exp2): 12.05% | FRET efficiency ([2]; […] Tris NTA; + FtsZ; Exp3): 9.96% | FRET efficiency ([2]; […] Tris NTA; + FtsZ; Mean, n = 3): 10.19% | FRET efficiency ([2]; […] Tris NTA; without FtsZ; Exp1): 9.50% | FRET efficiency ([2]; […] Tris NTA; without FtsZ; Exp2): 13.25% | FRET efficiency ([2]; […] Tris NTA; without FtsZ; Exp3): 7.80% | FRET efficiency ([2]; […] Tris NTA; without FtsZ; Mean, n = 3): 10.18% | FRET increase with FtsNcyto-His ([2]; […] Tris-NTA): more than twofold | FRET efficiency ([2]; […] Tris-NTA; + N (FtsNcyto); mean): 18.47% | FRET efficiency ([2]; […] Tris-NTA; + N/Z (FtsNcyto and FtsZ); mean): 17.73% | FRET efficiency ([2]; […] Tris-NTA; + N/Z; Exp. 1): 21.67% | FRET efficiency ([2]; […] Tris-NTA; + N/Z; Exp. 2): 17.33% | FRET efficiency ([2]; […] Tris-NTA; + N/Z; Exp. 3): 14.20% | FRET efficiency ([2]; […] Tris-NTA; + N; Exp. 1): 22.02% | FRET efficiency ([2]; […] Tris-NTA; + N; Exp. 2): 17.07% | FRET efficiency ([2]; […] Tris-NTA; + N; Exp. 3): 16.35% | FRET efficiency ([2]; […] Tris-NTA; + Z (FtsZ); mean): 8.99% | FRET efficiency ([2]; […] Tris-NTA; + Z; Exp. 1): 5.42% | FRET efficiency ([2]; […] Tris-NTA; + Z; Exp. 2): 8.55% | FRET efficiency ([2]; […] Tris-NTA; + Z; Exp. 3): 12.05% | FRET efficiency ([2]; […] Tris-NTA; + Z; Exp. 4): 9.96% | FRET efficiency ([2]; […] Tris-NTA; alone; Exp. 1): 4.90% | FRET efficiency ([2]; […] Tris-NTA; alone; Exp. 2): 9.50% | FRET efficiency ([2]; […] Tris-NTA; alone; Exp. 3): 13.25% | FRET efficiency ([2]; […] Tris-NTA; alone; Exp. 4): 7.80% | FRET efficiency ([2]; […] Tris-NTA; alone; mean): 8.86% | FRET efficiency ([2]; with FtsNcyto attached to the membrane; mean ± s.d.; p-value 0.03): 17.73 ± 3.06%
